“And” between values parts separate entries of the source, which are not always exact repeats. Equal values may be shown once. Read-outs that look alike come from different tables or passages of the source.
Columns and labels:
PSMA+ LNCaP cells = assay: Internalization experiments (specific cell surface bound and internalized fractions); type: cell-based; details: 68Ga-labeled compound 30 nM, 45 min
Experimental: (§1) PSMA^+ LNCaP cells (ATCC CRL-1740) were cultured in RPMI medium supplemented with 10% fetal calf serum and 2 mmol/L L-glutamine (all from PAA). Cells were grown at 37° C. in humidified air with 5% CO2 and were harvested using trypsin-ethylenediaminetetraacetic acid (trypsin-EDTA; 0.25% trypsin, 0.02% EDTA, Invitrogen).
For internalization experiments, 10^5 cells per well were seeded in poly-L-lysine coated 24-well cell culture plates 24 h before incubation. After washing, the cells were incubated with 30 nM of the radiolabeled compound for 45 min at 37° C. and at 4° C., respectively. Cellular uptake was terminated by washing 3 times with 1 mL of ice-cold PBS. To remove surface-bound radioactivity, cells were incubated twice with 0.5 mL glycine-HCl in PBS (50 mM, pH=2.8) for 5 min. The cells were washed with 1 mL of ice-cold PBS and lysed using 0.3 N NaOH (0.5 mL). The surface-bound and the internalized fractions were measured in a gamma counter. The cell uptake was calculated as percent of the initially added radioactivity bound to 10^5 cells [% ID/10^5 cells].

[1] = tested on: LNCaP-tumor bearing balb/c nu/nu mice; assay: Biodistribution (organ distribution) of 68Ga-labeled compounds; type: in vivo
Experimental: (§2) The precursor peptides [1 nmol in HEPES buffer (580 mg/ml), 90 μL] were added to 40 μL [^68Ga]Ga^3+ eluate (˜40 MBq). The pH was adjusted to 3.8 using 30% NaOH and 10% NaOH, respectively. The reaction mixture was incubated at 98° C. for 10 minutes. The radiochemical yield (RCY) was determined by HPLC. For the experimental tumor models 5×10^6 cells of LNCaP (in 50% Matrigel; Becton Dickinson, Heidelberg, Germany) were subcutaneously inoculated into the right trunk of 7- to 8-week-old male BALB/c nu/nu mice (Charles River). The tumors were allowed to grow until approximately 1 cm^3 in size. The ^68Ga-labeled compounds were injected into a tail vein (1-2 MBq; 60 pmol). […] Organs of interest were dissected, blotted dry, and weighed. The radioactivity was measured using a gamma counter and calculated as % ID/g. All animal experiments complied with the current laws of the Federal Republic of Germany.

PSMA = molecular target: T1, PSMA (Homo sapiens, UniProt Q04609); assay: Competitive cell binding assay on LNCaP cells (PSMA binding affinity); details: competition against 0.2 nM 68Ga-labeled PSMA-10
T1 construct: endogenous in cells; host or cells: LNCaP cells (ATCC CRL-1740)
T1 sequence (Q04609 whole entry): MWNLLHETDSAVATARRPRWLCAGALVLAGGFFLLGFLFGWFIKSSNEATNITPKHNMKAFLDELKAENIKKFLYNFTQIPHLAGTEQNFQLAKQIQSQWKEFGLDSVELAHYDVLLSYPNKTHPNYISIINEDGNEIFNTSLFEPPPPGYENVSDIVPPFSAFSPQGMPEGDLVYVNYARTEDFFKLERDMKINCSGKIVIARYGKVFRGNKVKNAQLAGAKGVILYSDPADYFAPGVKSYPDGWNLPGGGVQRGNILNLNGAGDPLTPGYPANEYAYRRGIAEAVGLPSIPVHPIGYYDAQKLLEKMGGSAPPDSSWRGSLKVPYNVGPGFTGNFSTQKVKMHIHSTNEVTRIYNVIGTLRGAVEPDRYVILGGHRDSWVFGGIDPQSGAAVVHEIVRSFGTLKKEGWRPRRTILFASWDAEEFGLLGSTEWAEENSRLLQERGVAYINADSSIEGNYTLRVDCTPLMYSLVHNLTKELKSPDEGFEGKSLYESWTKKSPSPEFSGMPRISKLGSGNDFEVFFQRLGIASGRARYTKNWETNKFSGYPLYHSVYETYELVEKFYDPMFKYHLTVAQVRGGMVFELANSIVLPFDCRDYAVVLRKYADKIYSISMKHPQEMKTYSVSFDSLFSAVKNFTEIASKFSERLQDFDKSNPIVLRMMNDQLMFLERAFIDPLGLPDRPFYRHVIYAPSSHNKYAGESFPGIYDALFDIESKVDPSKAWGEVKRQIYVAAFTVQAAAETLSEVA
Experimental: as §1
The competitive cell binding assay and internalization experiments were performed as described previously (4). Briefly, the cells (10^5 per well) were incubated with a 0.2 nM solution of ^68Ga-labeled radioligand [Glu-urea-Lys(Ahx)]2-HBED-CC (PSMA-10, precursor ordered from ABX, Radeberg, Germany) in the presence of 12 different concentrations of analyte (0-5000 nM, 100 μL/well). After incubation, the mixture was removed and the wells were washed 3 times with PBS using a multiscreen vacuum manifold (Millipore, Billerica, Mass.). Cell-bound radioactivity was measured using a gamma counter (Packard Cobra II, GMI, Minnesota, USA). The 50% inhibitory concentration (IC50) values were calculated by fitting the data using a nonlinear regression algorithm (GraphPad Software).

[2] = Biodistribution (organ distribution) of 68Ga-labeled compounds; type: in vivo, mice; details: male, BALB/c nu/nu, mouse, iv, 60 pmol, total radioactivity
Experimental: as §2

[3] = 68Ga labeled, 1 h p.i., tail vein
[4] = listed as PSMA-HBED-CC-PEG2-IRDye8000CW
[5] = in vivo, Organ distribution Blood
[6] = in vivo, Organ distribution Brain
[7] = in vivo, Organ distribution Heart
[8] = in vivo, Organ distribution Intestine
[9] = in vivo, Organ distribution Kidney
[10] = in vivo, Organ distribution Liver
[11] = in vivo, Organ distribution Lung
[12] = in vivo, Organ distribution Muscle
[13] = in vivo, Organ distribution Spleen

O=C(O)CCc1ccc(O)c(CN(CCN(CC(=O)O)Cc2cc(CCC(=O)NCCCCCC(=O)NCCCCC(NC(=O)NC(CCC(=O)O)C(=O)O)C(=O)O)ccc2O)CC(=O)O)c1 (stereo not drawn) [PSMA-11, Glu-urea-Lys-(Ahx)-HBED-CC, reference compound]
Specific cell surface bound (PSMA+ LNCaP cells): 2.31 ± 0.61 % ID/10^5 cells
Specific internalized (PSMA+ LNCaP cells): 3.57 ± 0.51 % ID/10^5 cells
Organ distribution Liver ([1]; 68Ga labeled): 0.34 % ID/g
Organ distribution Lung ([1]; 68Ga labeled): 1.19 % ID/g
Tumor-to-Organ ratio T/Blood ([1]; 68Ga labeled, 1 h p.i.): 9.23
Tumor-to-Organ ratio T/Brain ([1]; 68Ga labeled, 1 h p.i.): 12.23
Tumor-to-Organ ratio T/Heart ([1]; 68Ga labeled, 1 h p.i.): 5.89
Tumor-to-Organ ratio T/Intestine ([1]; 68Ga labeled, 1 h p.i.): 4.29
Tumor-to-Organ ratio T/Kidney ([1]; 68Ga labeled, 1 h p.i.): 0.04
Tumor-to-Organ ratio T/Liver ([1]; 68Ga labeled, 1 h p.i.): 3.42
Tumor-to-Organ ratio T/Lung ([1]; 68Ga labeled, 1 h p.i.): 2.07
Tumor-to-Organ ratio T/Muscle ([1]; 68Ga labeled, 1 h p.i.): 4.89
Tumor-to-Organ ratio T/Spleen ([1]; 68Ga labeled, 1 h p.i.): 0.27
Organ distribution Tumor (tumor accumulation) ([1]; 68Ga labeled, 1 h p.i., LNCaP tumor): 4.89±1.34 % ID/g and 4.89 % ID/g
Organ distribution Blood [1, 3]: 0.53 % ID/g
Organ distribution Brain [1, 3]: 0.40 % ID/g
Organ distribution Heart [1, 3]: 0.83 % ID/g
Organ distribution Intestine [1, 3]: 1.14 % ID/g
Organ distribution Kidney [1, 3]: 139.44 % ID/g
Organ distribution Liver [1, 3]: 1.43 % ID/g
Organ distribution Lung [1, 3]: 2.36 % ID/g
Organ distribution Muscle [1, 3]: 1.00 % ID/g
Organ distribution Spleen [1, 3]: 17.88 % ID/g
Organ distribution Blood ([1]; 68Ga labeled, 2 h p.i.): 0.32 % ID/g
Organ distribution Brain ([1]; 68Ga labeled, 2 h p.i.): 0.23 % ID/g
Organ distribution Heart ([1]; 68Ga labeled, 2 h p.i.): 0.31 % ID/g
Organ distribution Intestine ([1]; 68Ga labeled, 2 h p.i.): 1.19 % ID/g
Organ distribution Kidney ([1]; 68Ga labeled, 2 h p.i.): 129.73 % ID/g
Organ distribution Muscle ([1]; 68Ga labeled, 2 h p.i.): 2.06 % ID/g
Organ distribution Spleen ([1]; 68Ga labeled, 2 h p.i.): 12.41 % ID/g
Organ distribution Tumor ([1]; 68Ga labeled, 2 h p.i., LNCaP tumor): 6.09 % ID/g
Ki (PSMA): 9.82 ± 1.26 nM

CC1(C)C(/C=C/C2=C(Oc3ccc(S(=O)(=O)O)cc3)C(=C\C=C3/N(CCCCS(=O)(=O)O)c4ccc(S(=O)(=O)O)cc4C3(C)C)/CCC2)=[N+](CCCCCC(=O)NCCOCCOCCNC(=O)CCc2ccc(O)c(CN(CCN(CC(=O)O)Cc3cc(CCC(=O)NCCCCC(NC(=O)NC(CCC(=O)O)C(=O)O)C(=O)O)ccc3O)CC(=O)O)c2)c2ccc(S(=O)(=O)O)cc21 (stereo not drawn) [PSMA-HBED-CC-PEG2-IRDye800CW, Glu-urea-Lys-HBED-CC-PEG2-IRDye800CW, reference compound]
Specific cell surface bound (PSMA+ LNCaP cells): improved
Specific internalized (PSMA+ LNCaP cells): improved
Specific cell surface bound (PSMA+ LNCaP cells; [4]): 13.62 ± 4.79 % ID/10^5 cells
Specific internalized (PSMA+ LNCaP cells; [4]): 18.70 ± 7.03 % ID/10^5 cells
Tumor-to-Organ ratio T/Kidney ([1]; 68Ga labeled, 1 h p.i.): 0.07
Tumor-to-Organ ratio T/Blood ([1]; mouse, in vivo): 4.49
Tumor-to-Organ ratio T/Brain ([1]; mouse, in vivo): 31.39
Tumor-to-Organ ratio T/Heart ([1]; mouse, in vivo): 4.92
Tumor-to-Organ ratio T/Intestine ([1]; mouse, in vivo): 5.66
Tumor-to-Organ ratio T/Liver ([1]; mouse, in vivo): 4.94
Tumor-to-Organ ratio T/Lung ([1]; mouse, in vivo): 2.44
Tumor-to-Organ ratio T/Muscle ([1]; mouse, in vivo): 4.78
Tumor-to-Organ ratio T/Spleen ([1]; mouse, in vivo): 0.36
tissue uptake at 1 h [2, 5]: 3.04 %ID/g
tissue uptake at 2 h [2, 5]: 0.76 %ID/g
tissue uptake at 1 h [2, 6]: 0.43 %ID/g
tissue uptake at 2 h [2, 6]: 0.22 %ID/g
tissue uptake at 1 h [2, 7]: 2.78 %ID/g
tissue uptake at 2 h [2, 7]: 1 %ID/g
tissue uptake at 1 h [2, 8]: 2.41 %ID/g
tissue uptake at 2 h [2, 8]: 1.37 %ID/g
tissue uptake at 1 h [2, 9]: 205 %ID/g
tissue uptake at 2 h [2, 9]: 120 %ID/g
tissue uptake at 1 h [2, 10]: 2.76 %ID/g
tissue uptake at 2 h [2, 10]: 1.21 %ID/g
tissue uptake at 1 h [2, 11]: 5.6 %ID/g
tissue uptake at 2 h [2, 11]: 2.53 %ID/g
tissue uptake at 1 h [2, 12]: 2.86 %ID/g
tissue uptake at 2 h [2, 12]: 1.96 %ID/g
tissue uptake at 1 h [2, 13]: 38.1 %ID/g
tissue uptake at 2 h [2, 13]: 13.7 %ID/g
tissue uptake at 2 h ([2]; in vivo, Organ distribution Tumor): 7.94 %ID/g
tissue uptake at 1 h ([2]; in vivo, Organ distribution Tumor (tumor accumulation)): 13.7 %ID/g
tissue to tissue ratio at 1 h ([2]; in vivo, Tumor-to-Organ ratio T/Blood): 4.49
tissue to tissue ratio at 1 h ([2]; in vivo, Tumor-to-Organ ratio T/Brain): 31.4
tissue to tissue ratio at 1 h ([2]; in vivo, Tumor-to-Organ ratio T/Heart): 4.92
tissue to tissue ratio at 1 h ([2]; in vivo, Tumor-to-Organ ratio T/Intestine): 5.66
tissue to tissue ratio at 1 h ([2]; in vivo, Tumor-to-Organ ratio T/Liver): 4.94
tissue to tissue ratio at 1 h ([2]; in vivo, Tumor-to-Organ ratio T/Lung): 2.44
tissue to tissue ratio at 1 h ([2]; in vivo, Tumor-to-Organ ratio T/Muscle): 4.78
tissue to tissue ratio at 1 h ([2]; in vivo, Tumor-to-Organ ratio T/Spleen): 0.36
tissue to tissue ratio at 1 h ([2]; tumor and kidney, 68Ga labeled, 1 h p.i., read-out: Tumor-to-Organ ratio T/Kidney): 0.07
Ki (PSMA): 17.5 ± 4.98 nM
